Experimental findings from article PMC9971032, “Structure and mechanism of a tripartite ATP-independent periplasmic TRAP transporter” (Nature Communications, 2023) are described below.

Assay [1] deals with SiaQM complex with SiaM R292A (Photobacterium profundum).
The next assay deals with T1, SiaP (Photobacterium profundum, UniProt Q6LPV9).
T1 construct: gene SMB20295; native signal peptide (residues 1-22) removed, apparently untagged (pET30deltaSE, ion-exchange and hydrophobic purification), E. coli BL21(DE3)
Put plainly: isothermal titration calorimetry. The note with it: 50 mM Tris-HCl pH 8.0, 150 mM NaCl, 25 °C; single-site fit. The format is binding. The text has this:
isothermal titration calorimetry on SiaP | We confirmed that SiaP binds sialic acid with nanomolar affinity

Assay [2] deals with SiaQM transporter complex from Photobacterium profundum (Photobacterium profundum).

“SiaP (substrate-binding P-subunit of the sialic acid TRAP transporter from Photobacterium profundum) (natural protein)” returned a reduction of [3H]-Neu5Ac transport activity in proteoliposomes against wildtype SiaPQM in assay [1] of 87 % reduction.
With `CC(=O)N[C@H]1[C@H]([C@H](O)[C@H](O)CO)OC(O)(C(=O)O)C[C@@H]1O` (stereo partly drawn) [Neu5Ac], the Kd on SiaP came out at 561 nM.
As to SiaP D59A (natural protein), the reduction of [3H]-Neu5Ac transport activity in proteoliposomes against wildtype SiaPQM in assay [2] is 77 % reduction.
